This note sets out measurements from PMC6286341, “The reduced activity of PP-1α under redox stress condition is a consequence of GSH-mediated transient disulfide formation” (Scientific Reports, 2018).

This data set concerns the molecule itself. In words: disulfide-linked peptides by LC-MS/MS (cross-over-read search); non-treated bovine SOD1, filter-aided sample preparation, trypsin/chymotrypsin digest.

B1: bovine superoxide dismutase 1 (SOD1) (enzyme)
chain: not shown
modifications: N-terminal acetylation (N-terminally acetylated Cys7 peptides)
notes: superoxide dismutase 1, bovine; 3 Cys residues Cys7, Cys56 and Cys145; also called bovine SOD1; source: bought: Sigma Aldrich S7571
With B1, the binding result is on record as “binds”.
